IntAct's records for PubMed 19503079

Columns and labels:
atxr5_arath ATXR5 = molecular target: T1, atxr5_arath ATXR5 (UniProt Q8VZJ1)
T1 sequence: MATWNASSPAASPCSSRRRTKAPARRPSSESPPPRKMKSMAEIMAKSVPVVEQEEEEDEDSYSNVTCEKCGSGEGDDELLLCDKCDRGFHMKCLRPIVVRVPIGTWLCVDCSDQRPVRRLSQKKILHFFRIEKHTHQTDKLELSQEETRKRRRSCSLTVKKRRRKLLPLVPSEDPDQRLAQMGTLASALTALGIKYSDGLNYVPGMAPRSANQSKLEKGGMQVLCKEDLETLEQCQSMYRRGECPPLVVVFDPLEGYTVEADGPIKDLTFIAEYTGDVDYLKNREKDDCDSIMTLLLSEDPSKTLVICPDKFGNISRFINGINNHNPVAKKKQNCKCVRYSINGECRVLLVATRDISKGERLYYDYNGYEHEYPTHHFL

atxr6_arath ATXR6 = molecular target: T2, atxr6_arath ATXR6 (UniProt Q9FNE9)
T2 sequence: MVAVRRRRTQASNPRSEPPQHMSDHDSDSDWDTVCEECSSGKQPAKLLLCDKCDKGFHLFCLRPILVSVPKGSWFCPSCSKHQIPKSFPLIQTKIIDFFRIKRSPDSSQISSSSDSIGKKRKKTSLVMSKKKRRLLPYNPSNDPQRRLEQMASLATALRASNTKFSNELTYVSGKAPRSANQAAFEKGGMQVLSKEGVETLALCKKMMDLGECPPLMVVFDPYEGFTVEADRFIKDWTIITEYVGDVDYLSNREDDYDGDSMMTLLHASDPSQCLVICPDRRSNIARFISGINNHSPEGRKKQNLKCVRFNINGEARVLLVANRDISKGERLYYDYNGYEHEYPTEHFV

effect of a mutation on the interaction (atxr5_arath ATXR5): disrupting interaction
effect of a mutation on the interaction (atxr6_arath ATXR6): disrupting interaction
Substance: Histone H3.1 (Arabidopsis thaliana (Mouse-ear cress)) (from UniProt P59226) K28A
